Measured values taken from the nanobody polyreactivity screen of Harvey et al. (2022).

Assay: yeast display, Sf9 membrane polyspecificity reagent, FACS + sequencing; frameworks hold sequencing errors
Summary of the method: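 Sorting gates, low and high (top ~1%), were placed on anti-HA fluorescence to track expression and on streptavidin fluorescence to track reagent binding. A clone's polyreactivity label is taken from the gate it came out of. The reagent was 10% biotinylated, detergent-solubilized Sf9 membrane, applied for 1 hour at 4 °C to galactose-induced yeast display cells.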

Sequence	polyreactivity (PSR sort gate)
QVQLVESGGGLFQAGGSHRLSCAATGINFSEYAMGWYRQAPGKERELVAAISKSSGSTRYADSVKGRFTISRDNAKNTVFLQMNSLNPEDTAVYYCAARQYGPRYTYYYWGQGTQVTVSS	high polyreactivity
QVQLVESGGGLVQAGGSLRLSSAASGFTFVRYTMGWYRQAPGKERELVAAINASGDRTYYADSVKGRFTISRDNAKNTVYLQMNCLIPEDTAVFYCAAGSSLYYSHMGYWGQGTQVTVSS	high polyreactivity
QVQLVESGGGLVQAGGSLRLSSAASRSIFDYYAMGWYRQAPGKEREFVAAISESSDSTYYADSVKGRFTISRDNAKNTVYLQMNSLKPEDTAVYYCAGQRGGPFPRVVDLYDYWGQGTQVTVSS	low polyreactivity
QVQLVESGGGLVQAGGSLSLSCAASGRIFYYNAMGWYRQAPGKERELVAAITRGGSTYYADSVKGRFTISRDNAKNTVYLQMNSLKPEDTAVYYCAADRTGYSRYTTSVKGQRYYYWGQGTQVTVSS	high polyreactivity
QVQLVESVGGLVQAGGSLRLSCAASGITLYGYAMGWYRQAPGKERELVAAISWRGGRTYYADSVKGRFTISRDNAKNTVYVQMNSLKPEDTAVYYCLARSYYNWYDYWGQGTQVTVSS	high polyreactivity
QVQLVESGGGLVQAGGSLRLSCAASGFTLRKYVMGWYRQAPGKERELVAAITSSASSTYYADTVKGRFTISRDNAKNTVYLQMNSMKPEDTAVYYCAARGRPYRGSYYWGQGTQVTVSS	high polyreactivity
QVQLVESGGGLVQAGGSLRLSCAASGRIFRYYAMGWYRQAPGKERELVAAISSRGGSTYYADSVKGRFTISRDNAKNSVYLQMNSLKPEDTAVYFCDKAVFYGPSERNYGLDYWGQGTQVTVSS	high polyreactivity
QVQLVASGGGLVQAGGSLRLSCAASGGTFFYNAKGWYRQAPGKERELVAAINGGTSTNYADSVKGRFTISRDNAKNTDYLQRNSLKPEDTAVYYCAAVYRRLGRSDWYDYWGQGTQVTVSS	low polyreactivity
QVQLVESGGGLVQAGGRLRLSCAASGFKYAMGWYRQGPGKDRELVAAISSGGITSYADSVKGRFTISRDNAKNTVYLQMNSLKPEDTAVYYCNARLRHSQYAYYYWGQGTQVTVSS	high polyreactivity
QVQLVESGGGLVQAGGSLRLSCAASGFTFKRNAMGWYRQAPGKERELVAAITKSGGSTYYADSVKGRFTISRDNAKNTVYLQMNSLQPEDTAVYYCNTVHYYRDYDYWGQGTQVTVSS	high polyreactivity
QVQLVESGGGLVQAGGSLRLSCAASGFTFIDYTMGWYRQAPGKERELVARITDTGSTNYADSVKGRFTISRDNAKNTVYLQMNRLKPEDTAVYYCNKDDRNDRTIPGYDPEYDYWGQGTQVTVSS	low polyreactivity
QVQHVQSGGGLVQAGGSLPLSCDASASIFKYYTMGWYRQAPGKERELVATINFSGASTYYADSVKGRFTISRDNAKNTVYLQINSLKPEDTAVYYCAAVSSSTYRYYYWGQGTQVTVSS	high polyreactivity
QVQLVESGGGLVQAGGSLRLSCAASGRILGWNAMGWYSPAPGKVRELVAGISSSGGSTYYADSVKGRFTISRHNAKNTVNIQMNSLKPEDTAVYYCAAVVWLSSANRRYYYWGQGTQVTVSS	high polyreactivity
QVQLVESGGGIVQAGGSLRLSCAASGRIFYINAMGWYRQAPGKERELVAAISTSGGCTYYADSVKGRFTISRDNAKKTVYLQMNSLKPEVTAVYYCAAALRYGYYGREYYYWGQGTKVTVSS	high polyreactivity
QVQLVESGGGSVQAGGSLRLSCAASGSTFGGNVMGWYRQAPGKERELVAAISGSGGSTYYADSVKGRFTISRDTAKNTVYFQMNSLKPVDTSVYYCNVESSQSSSGFDYWGQGTQVTVSS	low polyreactivity
QVQLVESGGGLVQAGGSLRLSCAASGSIFRWYAMGWYRQAPGKERELVASITRSGGRTYYADSVKGRFTISRDNAKNTVYLQMNSLKPEDTAVYYCAADYYAYWYRYRYYYWGQGTQVTVSS	high polyreactivity
HDQHVESAGGLVQAGGSLRLSCAASGFILRWYAMGWYRQAPGKERELVAAISWSGGSTYYADSVKGRFTISRDNAKNTVYLQMNSEKPEVTAVYYCNAVNYRNKYDYWGQGTQVTVSS	high polyreactivity
QVQLVESGGGLVQAGGSLRLSCAASGSIFYENTMGWYRQAPGKERELVASISGGGSTYADSVKGRFTISRDNAKHTVYLQMNSLKPEDTAVYYCNADSSTEYDYWGQGTQVTVSA	low polyreactivity
QVQLVESGGGLVQAGGSLRLSCAASGRIFYSYAMGWYRQAPGKERELVATISRRGGSTYYADSVKGRFTISRDNAKNTVYLQMNSLKPEDTAVYYCNKGIPTRSVRSYDYWGQGTQVTVSS	high polyreactivity
QVQLVESGGGLVQAGGSLRLSCAASGSPFRHYALGWYRQAPGKERELVAVISWGGTSTYYADSGKGRFTISRDNAKNTVYLQMNSLKPEDSAVYYCNADSNWYYQWNYYGLYDYWGQGTQVTVSS	low polyreactivity
QVQLVESGGGLVQAGGSLRLSCAASGRIFKWYAMGWYRQAPGKERELVAAITSGGGSTYYADSVKGRFTISRDNAKNTVYLQMNSLKPEDTAVYYCNSWSSYGYDYWGQGTQVTVSS	high polyreactivity
QVQLVDSVRGLVQAGGSLRLSCAASGSIFNQNAMGWYRQAPGKERELVAVISSGGRTSYADSVKGRFTISRDNAKNTVYLQMNSLKPEDTAVYYCAADYGDRYWDYGYWGQGTQVTVSS	low polyreactivity
